The values below come from patent US7018836B1, “P-TEFb compositions, methods and screening assays” (priority 1996, dated 2006).

One data set deals with RNA polymerase II. As to the kind of experiment: Kinase assay of recombinant P-TEFb subunits with RNA polymerase II as substrate (Table 1). In kind it is biochemical, Drosophila. The conditions noted are these: RNA polymerase II as substrate. The protocol:
0.4 μl of purified RNA polymerase II and various protein samples were mixed in 18 μl of 55 mM HMK. The reaction was then initiated by the addition of 2 μl of a solution containing 2 μCi of [γ-^32P]ATP (ICN) and unlabeled ATP at 10 μM, or only unlabeled ATP at concentrations from 1 to 100 μM or other NTPs or dNTPs at concentrations of 1 to 100 μM. Reactions were incubated for the indicated times at 23° C. and then terminated with SDS loading buffer. Samples were analyzed on a 6–15% SDS polyacrylamide gel which was silver stained, dried and subjected to autoradiography if the assay contained label.
Using the CTD Kinase assay, as previously described in Example 2, Section A.7, both HBL1-1 (SEQ ID NO:45), HBL2(SEQ ID NO:47) and HBL3 (SEQ ID NO:50) were substituted for the large subunit in the Drosophila transcription system. Alone “PITARLE” has little kinase activity and no detectable activity in transcription.

The subject of data set [1] is transcription in Drosophila extract depleted of P-TEFb. Briefly: Transcription activity of recombinant protein added into Drosophila extract depleted of P-TEFb (Table 1). In kind it is biochemical.
The test system of data set [2] is transcription from HIV-1 LTR. Briefly: In vitro Tat transactivation in HNE with TAR and DTAR templates (FIG. 8). In kind it is biochemical, human. The protocol:
The transcription template (Nco I-digested pLTR-4/CAT vector containing the HIV-1 LTR from −153 to +80) was used in a pulse-chase transcription experiment. Reactions (12 μl total; 20 mM HEPES, pH 7.6, 7 mM MgCl2, 20 μg/ml DNA template, 3 μl HNE, 64 mM KCl, with 50 μM DRB or 0.3 μl Drosophila P-TEFb (Marshall et al., 1996) as indicated) were pre-incubated for 20 minutes at 30° C., pulsed for 2 minutes by adding ATP, GTP, UTP to 600 μM each and 5 μCi [α-^32P]CTP (˜0.1 mM), and chased for 5 minutes by adding CTP to 1.2 mM. Reactions were stopped, phenol extracted and analyzed on a 6% polyacrylamide gel as described (Marshall and Price, 1995). pLTR-TAR-Luc and pLTR-DTAR-Luc plasmids were digested with Eco RI to generate TAR and DTAR template that were used in the studies. The TAR template contains HIV-1 LTR from −475 to +76, while the DTAR template contains HIV-1 LTR from −475 to +19. Transcription with TAR and DTAR templates generates runoffs of 694 and 646 nucleotides, respectively. The transcription reaction mix contained 20 mM HEPES (pH7.6), 7 mM MgCl2, 60 mM KCl, 0.5 μl HNE (or depHNE as indicated), 20 μg/ml TAR template (or DTAR template as indicated), indicated amount of HIV-1 Tat (86 residue HIV-1 Tat followed by a streptavidin binding tag at its carboxyl terminus) and DRB. The reaction mix was pre-incubated for 15 minutes at 30° C. and the transcription was started by adding nucleotides to final concentrations of 50 μM ATP, 50 μM GTP, 50 μM UTP, 10 μM CTP, and 5 μCi [α-^32P]CTP (˜0.1 mM), and continuously labeled for 20 minutes, or by adding nucleotides to final concentrations of 50 μM ATP, 50 μM GTP, 50 μM UTP, and 5 μCi [α-^32P]CTP (˜0.1 mM), and pulsed for 2 minutes. The reactions were stopped and reaction mix were phenol-extracted. The transcripts were then analyzed on a 6% polyacrylamide gel as described (Marshall and Price, 1995).

B1: DBS: Drosophila P-TEFb small subunit, HIS-tagged recombinant (protein)
chain: MAHMSHMLQQPSGSTPSNVGSSSSRTMSLMEKQKYIEDYDFPYCDESNKYEKVAKIGQGTFGEVFKAREKKGNKKFVAMKKVLMDNEKEGFPITALREIRILQLLKHENVVNLIEICRTKATATNGYRSTFYLVFDFCEHDLAGLLSNMNVKFSLGEIKKVMQQLLNGLYYIHSNKILHRDMKAANVLITKHGILKLADFGLARAFSIPKNESKNRYTNRVVTLWYRPPELLLGDRNYGPPVDMWGAGCIMAEMWTRSPIMQGNTEQQQLTFISQLCGSFTPDVWPGVEELELYKSIELPKNQKRRVKERLRPYVKDQTGCDLLDKLLTLDPKKRIDADTALNHDFFWTDPMPSDLSKMLSQHLQSMFEYLAQPRRSNQMRNYHQQLTTMNQKPQDNSMIDRVW
modifications: left off: small tags and cut ends
notes: Drosophila P-TEFb small subunit, HIS-tagged recombinant
Consider B1, for which the Kinase activity result in the data set with RNA polymerase II was “very little”. In data set [1], the Transcription activity result was “none”.

B2: Tat: 86 residue HIV-1 Tat followed by a streptavidin binding tag at its carboxyl terminus (protein)
chain: MEPVDPRLEPWKHPGSQPKTACTNCYCKKCCFHCQVCFITKALGISYGRKKRRQRRRAHQNSQTHQASLSKQPTSQPRGDPTGPKE
modifications: left off: large carriers
Regarding B2, the “stimulation of generation of runoff” value in data set [2] (HNE not depleted, TAR template, continuous labeling, 10 ng/μl Tat) is “about 12 fold”. In addition, the “increase of runoff in presence of 50 μM DRB, DTAR template or absence of human P-TEFb” value in data set [2] (continuous labeling) is given as “about two”. In data set [2] (pulse-only protocol, 10 ng/μl Tat), the “increase of transcription initiation (short pulsed transcripts)” value is “about two”.
